The source of these data is article PMC9178005.

For data set [1], the target named is Rob Cys281-Cy3B;RNA polymerase sigma70 holoenzyme (Escherichia coli;Escherichia coli, UniProt P0ACI0;P0A7Z4;P0A8V2;P0A8T7;P0A800;P00579 1-289;1-329;1-1342;1-1407;1-91;1-613, C147S;C247S|). The data set can be described thus: single-molecule FRET.
In data set [2] the target is Rob Cys281-Cy3B;biotinylated RNAP holoenzyme (Escherichia coli;Escherichia coli?, UniProt P0ACI0;P0A7Z4;P0A8V2;P0A8T7;P0A800;P00579 1-289;1-329;1-1342;1-1407;1-91;1-613, C147S;C247S|). In words: single-molecule FRET.

B1: micF DNA2-Cy5-biotin (bioDNA) (dsDNA)
DNA 1: GTATTTGACAGCACTGAATGTCAAAACAAAACCTTCACTCGCAACTATAATGGGAGCTGTCACGGATGCAACTTTATTTATTACC
DNA 2: GGTAATAAATAAAGTTGCATCCGTGACAGCTCCCATTATAGTTGCGAGTGAAGGTTTTGTTTTGACATTCAGTGCTGTCAAATAC
modifications: internal Cy5-dT in template strand
Take B1: the binding result in data set [1] is given as “binds”.

B2: micF DNA2-Cy5 (dsDNA)
DNA 1: GTATTTGACAGCACTGAATGTCAAAACAAAACCTTCACTCGCAACTATAATGGGAGCTGTCACGGATGCAACTTTATTTATTACC
DNA 2: GGTAATAAATAAAGTTGCATCCGTGACAGCTCCCATTATAGTTGCGAGTGAAGGTTTTGTTTTGACATTCAGTGCTGTCAAATAC
modifications: internal Cy5-dT in template strand
In the case of B2, the binding result in data set [2] is “binds”.
